In publication PMC11578449 (PLOS Pathogens, 2024) one finds koff and kon data, which are given here for two molecules.

Assay [1] has as its target human dipeptidyl peptidase 4 ectodomain (hDPP4, residues 39-766) (human) (UniProt P27487). The assay can be described thus: SPR; BIAcore T200, 25 °C; […]; 1:1 Langmuir binding model. Background: SPR reads the build-up and loss of mass on a sensor chip optically.
The target of assay [2] is T1, human dipeptidyl peptidase 4 ectodomain (hDPP4, residues 39-766) (human, UniProt P27487 39-766).
T1 construct: also called human DPP4
T1 sequence (P27487 39-766): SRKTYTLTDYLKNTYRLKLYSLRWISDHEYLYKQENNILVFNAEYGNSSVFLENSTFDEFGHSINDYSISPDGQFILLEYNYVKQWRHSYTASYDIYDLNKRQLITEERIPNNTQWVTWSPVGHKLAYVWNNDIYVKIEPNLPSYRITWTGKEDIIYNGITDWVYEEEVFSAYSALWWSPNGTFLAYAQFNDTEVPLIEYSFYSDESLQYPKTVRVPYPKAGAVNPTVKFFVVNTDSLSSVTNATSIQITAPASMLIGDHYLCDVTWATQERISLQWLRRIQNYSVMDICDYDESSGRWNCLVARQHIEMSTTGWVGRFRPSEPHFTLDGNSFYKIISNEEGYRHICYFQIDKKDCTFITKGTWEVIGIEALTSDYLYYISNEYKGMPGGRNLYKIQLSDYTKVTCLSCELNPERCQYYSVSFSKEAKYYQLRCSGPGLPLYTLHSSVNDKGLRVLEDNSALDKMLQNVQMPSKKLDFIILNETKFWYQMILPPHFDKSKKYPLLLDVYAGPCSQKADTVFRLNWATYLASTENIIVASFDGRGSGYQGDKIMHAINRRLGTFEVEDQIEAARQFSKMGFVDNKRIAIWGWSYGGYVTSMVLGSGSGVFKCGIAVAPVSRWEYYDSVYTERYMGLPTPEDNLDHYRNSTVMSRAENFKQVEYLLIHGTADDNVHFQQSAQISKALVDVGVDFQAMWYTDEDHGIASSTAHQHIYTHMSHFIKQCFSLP
The description is as above. The following applies: both partners purified.

Chain of human dipeptidyl peptidase 4 ectodomain (hDPP4, residues 39-766) (human) (P27487 39-766): as above

As for “MjHKU4r-CoV-1 spike receptor binding domain (residues 375-614) (domain or fragment)”, in assay [1], the koff was determined as 0.00368 s⁻¹ and the on-rate (kon) was 17000 M⁻¹ s⁻¹.

B1: Ty-BatCoV-HKU4 spike receptor binding domain (residues E372-Y611) (domain or fragment)
chain: EASATGTFIEQPNATECDFSPMLTGVAPQVYNFKRLVFSNCNYNLTKLLSLFAVDEFSCNGISPDSIARGCYSTLTVDYFAYPLSMKSYIRPGSAGNIPLYNYKQSFANPTCRVMASVLANVTITKPHAYGYISKCSRLTGANQDVETPLYINPGEYSICRDFSPGGFSEDGQVFKRTLTQFEGGGLLIGVGTRVPMTDNLQMSFIISVQYGTGTDSVCPMLDLGDSLTITNRLGKCVDY
For B1, in assay [2], the dissociation rate constant (koff) was determined as 0.00684 s⁻¹ and the association rate constant (kon) worked out at 1070 M⁻¹ s⁻¹.

For orientation: koff means a measure of how fast the partners let go of each other. Low values mean a long-lived complex, high ones a short-lived complex. The term kon denotes the second-order rate constant of association. A higher kon goes with fast association.
